# From article PMC10371798, “Protein–protein interactions between tenascin-R and RPTPζ/phosphacan are critical to maintain the architecture of perineuronal nets” (The Journal of Biological Chemistry, 2023)
# Where “and” joins values, the source holds several entries; their conditions need not be identical. Equal entries are not always repeated.
# Experiments:
# Settings in all cases: both partners purified
# [1] = molecular target: T1, Fg domain of human tenascin-C (human, UniProt P24821 1975-2201); test: BLI; biotinylated RPTPζ(FN) on streptavidin tips, Fg domain as analyte; room temperature, 150 mM NaCl, 10 mM Na-Hepes pH 7.5, 1 mg/ml BSA, 0.02% Tween-20, 5 mM CaCl2; dose-response analysis of the signal at equilibrium
# T1 construct: C-terminal fibrinogen-like (Fg) domain of human tenascin-C, amino acid residues 1975-2201; also called HTNC(Fg); TNC(Fg); source: E. coli Origami 2(DE3), purified (Ni Sepharose, HRV 3C cleavage, HiTrap Heparin, Superdex 200)
# T1 sequence (looked up): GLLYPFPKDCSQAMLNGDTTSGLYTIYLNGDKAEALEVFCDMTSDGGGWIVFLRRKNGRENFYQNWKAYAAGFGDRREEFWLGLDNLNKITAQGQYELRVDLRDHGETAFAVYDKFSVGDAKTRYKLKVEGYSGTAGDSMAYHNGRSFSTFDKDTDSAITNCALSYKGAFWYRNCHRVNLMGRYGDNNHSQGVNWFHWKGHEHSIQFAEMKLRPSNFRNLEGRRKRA
# [2] = molecular target: T2, Fg domain of human tenascin-R (human, UniProt Q92752 1129-1358); test: as above
# T2 construct: C-terminal fibrinogen-like (Fg) domain of human tenascin-R, amino acid residues 1129-1358; also called HTNR(Fg); TNR(Fg); source: E. coli Origami 2(DE3), purified (Ni Sepharose, HRV 3C cleavage, HiTrap Heparin, Superdex 200)
# T2 sequence (looked up): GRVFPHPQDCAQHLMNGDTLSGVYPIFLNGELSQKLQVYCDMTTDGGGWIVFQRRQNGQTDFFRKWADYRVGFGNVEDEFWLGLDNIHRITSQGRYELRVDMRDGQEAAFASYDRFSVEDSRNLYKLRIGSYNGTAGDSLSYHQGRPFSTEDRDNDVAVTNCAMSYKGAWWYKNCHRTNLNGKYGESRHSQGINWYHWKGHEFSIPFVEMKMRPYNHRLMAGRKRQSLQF
# [3] = molecular target: T1, Fg domain of human tenascin-C; test: BLI; biotinylated RPTPζ(FN) on streptavidin tips, Fg domain as analyte; room temperature, 150 mM NaCl, 10 mM Na-Hepes pH 7.5, 1 mg/ml BSA, 0.02% Tween-20, 5 mM CaCl2; kinetic analysis, sensorgrams fitted to a 1:1 binding model
# [4] = molecular target: T2, Fg domain of human tenascin-R; test: as above
# [5] = molecular target: T3, CA-FN domains of human RPTPζ (amino acid residues 34-410) fused to human IgG1 Fc, purified (human, UniProt P23471 34-410); test: AlphaScreen or HTRF; competition format: biotinylated human TNC(Fg) (5 nM) on streptavidin donor beads, purified RPTPζ(CA-FN)-Fc (0.5 nM) on protein A acceptor beads, untagged Fg domains at varying concentrations; room temperature; one-site competition fit
# T3 construct: RPTPζ, human, carbonic anhydrase-like and FN domains (CA-FN), residues 34-410; also called RPTPζ(CA-FN); IgG Fc fusion of RPTPζ(CA-FN)
# [6] = molecular target: T4, CA-FN domains of human RPTPζ fused to human IgG1 Fc (human, UniProt P23471 34-410); test: AlphaScreen or HTRF; competition: RPTPζ(CA-FN)-Fc (0.5 nM) on protein A acceptor beads, biotinylated TNC(Fg) (5 nM) on streptavidin donor beads, untagged Fg domain as inhibitor in a dilution series; room temperature; one-site competition fit
# T4 construct: carbonic anhydrase-like and fibronectin type III (CA-FN) domains of human RPTPζ, amino acid residues 34-410; also called RPTPζ(CA-FN)-Fc; RPTPζ(CA-FN)
# [7] = molecular target: T5, Fg domain of human tenascin-R (amino acid residues 1129-1358) (human, UniProt Q92752 1129-1358); test: BLI; biotinylated FN domain of RPTPζ (250 nM) immobilised on streptavidin tips; Fg domain in solution; room temperature; 150 mM NaCl, 10 mM Na-Hepes pH 7.5, 1 mg/ml BSA, 0.02% Tween-20, 5 mM EDTA; KD from the signal at equilibrium
# T5 construct: tenascin-R (TNR), human, fibrinogen-like (Fg) domain, residues 1129-1358; also called TNR(Fg); source: E. coli Origami 2(DE3), purified (Ni Sepharose, 3C cleavage, HiTrap Heparin, Superdex 200)
# T5 sequence (looked up): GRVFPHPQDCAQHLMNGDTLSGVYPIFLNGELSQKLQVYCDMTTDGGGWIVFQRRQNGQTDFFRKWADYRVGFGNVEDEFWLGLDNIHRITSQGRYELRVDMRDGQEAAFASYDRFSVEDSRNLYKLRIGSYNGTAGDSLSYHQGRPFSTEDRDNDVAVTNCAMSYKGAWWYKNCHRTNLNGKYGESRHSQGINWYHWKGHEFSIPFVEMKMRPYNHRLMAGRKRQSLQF
# [8] = molecular target: T6, Fg domain of human tenascin-C (amino acid residues 1975-2201) (human, UniProt P24821 1975-2201); test: as above
# T6 construct: tenascin-C (TNC), human, fibrinogen-like (Fg) domain, residues 1975-2201; also called TNC(Fg); WT TNC; source: E. coli Origami 2(DE3), purified (Ni Sepharose, 3C cleavage, HiTrap Heparin, Superdex 200)
# T6 sequence (looked up): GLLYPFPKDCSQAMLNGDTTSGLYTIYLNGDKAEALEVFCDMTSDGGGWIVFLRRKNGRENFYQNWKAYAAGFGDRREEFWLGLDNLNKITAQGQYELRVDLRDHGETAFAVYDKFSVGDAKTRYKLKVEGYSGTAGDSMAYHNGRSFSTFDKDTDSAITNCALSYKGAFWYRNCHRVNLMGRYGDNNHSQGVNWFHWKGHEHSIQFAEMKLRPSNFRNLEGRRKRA
# [9] = molecular target: T5, Fg domain of human tenascin-R (amino …); test: BLI; biotinylated FN domain of RPTPζ (250 nM) immobilised on streptavidin tips; Fg domain in solution; room temperature; 150 mM NaCl, 10 mM Na-Hepes pH 7.5, 1 mg/ml BSA, 0.02% Tween-20, 5 mM CaCl2; KD from the signal at equilibrium
# [10] = molecular target: T6, Fg domain of human tenascin-C (amino …); test: as above
binder,measurement,setting,value
"biotinylated FN domain of human RPTPζ (domain or fragment, biotin (EZ-Link NHS-PEG4-Biotin, 1:1 molar ratio)) not shown [biotinylated FN domain of human RPTPζ, listing 1 of 2 here]",Kd,[1],242 nM and 191 nM and 127 nM and 187 nM
same,Kd,[2],114 nM and 117 nM and 113 nM and 104 nM
same,Kd,[3],150 nM and 170 nM and 189 nM and 173 nM
same,Kd,[4],79 nM and 80 nM and 78 nM
"biotinylated Fg domain of human tenascin-C with a cysteine residue added at the N-terminus (domain or fragment, biotin (EZ-Link Maleimide-PEG2-Biotin) on the added N-terminal cysteine, cysteine residue added at the N-terminus of the Fg domain by site-directed mutagenesis; tenascin-C (TNC), human, fibrinogen-like (Fg) domain, residues 1975-2201; also called biotinylated human TNC(Fg); biotinylated TNC(Fg); source: E. coli Origami 2(DE3), purified, biotinylated, then gel filtration) CGLLYPFPKDCSQAMLNGDTTSGLYTIYLNGDKAEALEVFCDMTSDGGGWIVFLRRKNGRENFYQNWKAYAAGFGDRREEFWLGLDNLNKITAQGQYELRVDLRDHGETAFAVYDKFSVGDAKTRYKLKVEGYSGTAGDSMAYHNGRSFSTFDKDTDSAITNCALSYKGAFWYRNCHRVNLMGRYGDNNHSQGVNWFHWKGHEHSIQFAEMKLRPSNFRNLEGRRKRA",binding result,[5],binds
"biotinylated Fg domain of human tenascin-C with an added N-terminal cysteine (domain or fragment, biotin (EZ-Link Maleimide-PEG2-Biotin) on the cysteine added at the N-terminus, a cysteine residue added at the N-terminus of the Fg domain by site-directed mutagenesis; C-terminal fibrinogen-like (Fg) domain of human tenascin-C, amino acid residues 1975-2201; also called biotin-HTNC(Fg); biotinylated human TNC(Fg); source: E. coli Origami 2(DE3), purified, biotinylated, then gel filtration) CGLLYPFPKDCSQAMLNGDTTSGLYTIYLNGDKAEALEVFCDMTSDGGGWIVFLRRKNGRENFYQNWKAYAAGFGDRREEFWLGLDNLNKITAQGQYELRVDLRDHGETAFAVYDKFSVGDAKTRYKLKVEGYSGTAGDSMAYHNGRSFSTFDKDTDSAITNCALSYKGAFWYRNCHRVNLMGRYGDNNHSQGVNWFHWKGHEHSIQFAEMKLRPSNFRNLEGRRKRA",binding result,[6],binds
"biotinylated FN domain of human RPTPζ (domain or fragment, biotin (EZ-Link NHS-PEG4-Biotin, 1:1 molar ratio)) not shown [biotinylated FN domain of human RPTPζ, listing 2 of 2 here]",Kd,[7],712 nM
same,Kd,[8],9900 nM
same,Kd,[9],112 nM
same,koff,[9],> 0.01 s⁻¹
same,Kd,[10],187 nM
same,koff,[10],> 0.01 s⁻¹
